The values below come from patent US9371374 (AbbVie / Abbott, dated 2016).

Test [1] deals with T1, HCV Core1-169 (HCV-1, UniProt P26664 1-169).
T1 construct: also called Solid Phase HCV Core
T1 sequence: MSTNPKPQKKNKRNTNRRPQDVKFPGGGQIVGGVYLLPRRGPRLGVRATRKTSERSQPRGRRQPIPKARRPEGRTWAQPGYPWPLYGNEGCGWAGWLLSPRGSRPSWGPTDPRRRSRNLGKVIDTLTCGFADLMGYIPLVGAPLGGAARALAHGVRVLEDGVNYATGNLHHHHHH
The test is described as follows: sandwich EIA, capture C11-7.

In test [2] the target is T1, HCV Core1-169. The experiment in a line: sandwich EIA, NC capture mAb.
The target in test [3] is T1, HCV Core1-169. The experiment in a line: sandwich EIA, capture 208B-741.
For test [4], the target named is T1, HCV Core1-169. The test is described as follows: sandwich EIA, capture 208B-612-226.
The target in test [5] is T1, HCV Core1-169. The test is described as follows: sandwich EIA, capture 208B-1096.
Test [6] addresses T1, HCV Core1-169. The experiment in a line: sandwich EIA, capture C11-9.
In test [7] the target is T1, HCV Core1-169. The experiment in a line: sandwich EIA, capture 208A-207-271.
In test [8] the target is T1, HCV Core1-169. The test is described as follows: sandwich EIA, capture 208B-395-334.
For test [9], the target named is T1, HCV Core1-169. The test is described as follows: sandwich EIA, capture 208A-692.
Test [10] concerns the target T1, HCV Core1-169. The experiment in a line: sandwich EIA, capture 208A-293.
For test [11], the target named is T1, HCV Core1-169. The test is described as follows: sandwich EIA, capture 208A-557.
Test [12] concerns the target T1, HCV Core1-169. The experiment in a line: sandwich EIA, capture 208A-110.
Test [13] deals with HCV Core 134-171-TT peptide (ALRZ-9 peptide) (HCV-1). The experiment in a line: SPR, captured mAb. (In general: Surface plasmon resonance follows binding to a sensor surface in real time, without labels.)
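For Kd in this document: Anti-HCV Core mAbs from hybridoma supernatants held on a rabbit anti-mouse IgG CM5 surface, peptide flowed over 3 min then 4 min dissociation, duplicate concentrations.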
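For koff in this document: Anti-HCV Core mAbs from hybridoma supernatants held on a rabbit anti-mouse IgG CM5 surface, peptide flowed over 3 min then 4 min dissociation, duplicate concentrations.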
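For kon in this document: Anti-HCV Core mAbs from hybridoma supernatants held on a rabbit anti-mouse IgG CM5 surface, peptide flowed over 3 min then 4 min dissociation, duplicate concentrations.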

B1: HCV 208A-692 (antibody, V domains shown)
VH: QGQMQQSGAELAKPGASVKLSCKTSGFTFSSSYISWLKQKPGQSLEWIAWIFAGTGNTNYNQKFTDKAQLTVDTSSSTAYMQLSSLTTEDSAIYYCAISGTGFTYWGQGTLVTVSA
VL: EVLMTQSPLSLPVSLGDQASISCRSSQSLEHSNGNTYLEWFLQRPGQPPKLLIYKVSSRFSGVPDRFSGSGSGTDFTLKISRVEAEDLGVYYCFQGSHVPFTFGSGTKLAIKR
Take B1: the OD492 with HCV Core1-169 [1] amounted to 2.92 OD; in the test with HCV Core1-169 [2], 0.4 OD; in the test with HCV Core1-169 [3], 0.44 OD; with HCV Core1-169 [4] it was 0.37 OD; in the test with HCV Core1-169 [5], 0.38 OD; in the test with HCV Core1-169 [6] it was 2.66 OD. For the same molecule, the OD492 came out at 0.39 OD in the test with HCV Core1-169 [7]; 0.44 OD in the test with HCV Core1-169 [8]; 0.35 OD with HCV Core1-169 [9]; 0.51 OD in the test with HCV Core1-169 [10]; 0.53 OD with HCV Core1-169 [11]; 0.54 OD with HCV Core1-169 [12].

B2: HCV 208B-612 (antibody, V domains shown)
VH: EVQLQQSGPELVKPGASVKMSCKASGYRFTSYVMHWVRQKPGQGLEWIGYIDPHNDDTKYSEKFRGKATLTSDKSSTTAYMELSSLTSEDSAVYYCVRYSYDRDYSPMDYWGQGTSVTVSS
VL: QIVLTQSPTLMSASPGEKVTMTCSASSTVTYIYWYQQKPGSSPRLWMYDTFNLVSGVPARFSGSRSGTSYFLTISSMEGEDAATYYCQQYSDSPYTFGGGTKLEIKR
In general, Kd refers to the concentration at which binding is half-saturated. In general, koff refers to the rate constant with which the complex falls apart. Read a high koff as fast dissociation. Broadly, the kon is a measure of how fast the partners come together. Higher therefore signals faster complex formation. On to B2, for which the OD492 was 1.52 OD with HCV Core1-169 [1]; 0.21 OD with HCV Core1-169 [2]; 0.23 OD in the test with HCV Core1-169 [3]; 0.23 OD with HCV Core1-169 [4]; 0.7 OD with HCV Core1-169 [5]; 0.64 OD with HCV Core1-169 [6]. Moreover, the OD492 with HCV Core1-169 [7] turned out to be 0.24 OD; in the test with HCV Core1-169 [8] it was 0.83 OD; in the test with HCV Core1-169 [10], 0.28 OD; with HCV Core1-169 [11] it was 0.23 OD; with HCV Core1-169 [12], 0.26 OD. Also, in test [13], the Kd stood at 350 pM. The molecule also returned a koff in test [13] of 6.5e-05 s⁻¹. Further, in test [13], the kon worked out at 180000 M⁻¹ s⁻¹.

B3: HCV 208A-207 (antibody, V domains shown)
VH: QGQLQQPGAEFVKPGASLKLSCRASGYTFTSYWIHWVKQRPGQGLEWIGEIDPSDSYINQNQKFRGKATLTVDKSSSTAYMELSGLTSEDSAVYYCARHYYGVLDSWGQGTTLTVSS
VL: DIVLTQSPATLSVTPGDRVSLSCRASQRIYNYLHWYQQKSHESPRLLTKYASQSISGIPSRFSGSGSGTDFILTINSVETEDFGMYFCQQSNSWPLTFGAGTKLELRR
In the case of B3, the OD492 in the test with HCV Core1-169 [1] came out at 2.47 OD; in the test with HCV Core1-169 [2], 0.37 OD; with HCV Core1-169 [3], 0.3 OD; with HCV Core1-169 [4], 0.33 OD; with HCV Core1-169 [5], 0.33 OD; with HCV Core1-169 [6] it was 2.2 OD. The OD492 with HCV Core1-169 [7] was 0.36 OD; in the test with HCV Core1-169 [8], 0.37 OD; with HCV Core1-169 [9] it was 0.42 OD; with HCV Core1-169 [10], 0.42 OD; with HCV Core1-169 [11] it was 0.82 OD; with HCV Core1-169 [12] it was 0.38 OD. In test [13], this molecule showed a Kd of less than 32 pM. This molecule also had a koff in test [13] of less than 1e-05 s⁻¹. The molecule further showed a kon in test [13] of 310000 M⁻¹ s⁻¹.

B4: HCV 208A-110 (antibody, V domains shown)
VH: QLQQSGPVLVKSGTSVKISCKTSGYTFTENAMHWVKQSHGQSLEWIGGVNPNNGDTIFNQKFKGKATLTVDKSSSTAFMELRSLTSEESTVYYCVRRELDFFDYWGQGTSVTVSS
VL: DIVLTQSPASLAVSLGQRATISCRASQSVSTSRYSYMHWYQQKPGQPPKLLIKYASNLESGVPARFSGSGSGTDFTLNIHPVAEEDTAAYYCQHSWEFPFTFGSGTKLEIKR
Take B4: the OD492 with HCV Core1-169 [1] is 0.18 OD; in the test with HCV Core1-169 [2], 0.15 OD; with HCV Core1-169 [3], 0.2 OD; with HCV Core1-169 [4] it was 0.2 OD; with HCV Core1-169 [5], 0.21 OD; with HCV Core1-169 [6] it was 0.13 OD. The OD492 with HCV Core1-169 [7] is 0.17 OD; with HCV Core1-169 [8] it was 0.22 OD; in the test with HCV Core1-169 [9], 0.14 OD; with HCV Core1-169 [10], 0.2 OD; with HCV Core1-169 [11] it was 0.17 OD; with HCV Core1-169 [12], 0.18 OD. This molecule also gave a Kd in test [13] of 330 pM. This molecule showed a koff in test [13] of 0.00055 s⁻¹. In [13], this molecule gave a kon of 1.7e+06 M⁻¹ s⁻¹.

B5: HCV 208A-557 (antibody, V domains shown)
VH: QGQMQQSGAELVKPGASVKLSCKTSGFTFSSSYISWLKQKPGQSLEWIAWIYAGTGNTNYNQKFTDKAQLTVDTSSSTAYMQLSSLTTEDSAIYYCAISGTGFTYWGQGTLVTVSA
VL: DIALTQSPASLAVSLGQRATISCRASQSVSTSRYSYMHWYQQKPGQPPELLIKYASNLESGVPARFSGSGSGTDFTLNIHPVGEEDTATYYCQHSWDFPFTFGSGTKLEIKR
Take B5: the OD492 was 0.22 OD with HCV Core1-169 [1]; 0.18 OD with HCV Core1-169 [2]; 0.38 OD with HCV Core1-169 [3]; 0.25 OD in the test with HCV Core1-169 [4]; 0.35 OD with HCV Core1-169 [5]; 0.14 OD in the test with HCV Core1-169 [6]. For the same molecule, the OD492 stood at 0.18 OD in the test with HCV Core1-169 [7]; 0.28 OD in the test with HCV Core1-169 [8]; 0.13 OD with HCV Core1-169 [9]; 0.41 OD in the test with HCV Core1-169 [10]; 0.32 OD with HCV Core1-169 [11]; 0.44 OD with HCV Core1-169 [12]. The molecule further yielded a Kd in test [13] of 91 pM. Besides, the koff in test [13] was 0.00021 s⁻¹. In test [13], this molecule showed a kon of 2.4e+06 M⁻¹ s⁻¹.

B6: HCV 208A-293 (antibody, V domains shown)
VH: EVQLQQSGPELVKPGASVKISCKASGFTFTEYAMHWMKQSHGKSLEWIGGINPTNGDAIYNQKFKDKAKLTVDRSSSTAYMELRSLTSDDSALFYCARRELDYFPSWGQGTTLTVSS
VL: DIVLTQSPASLIVSLGQRATISCRASQSVSTSRFSYVHWIQQKPGQPPKLLIKYASNLESGVPVRFSGSGSGTDFILNIHPVEEEDTATYFCQHSWEFPFTFGSGTKLEIKR
With B6, the OD492 is 2.87 OD with HCV Core1-169 [1]; 0.37 OD in the test with HCV Core1-169 [2]; 0.5 OD with HCV Core1-169 [3]; 0.37 OD with HCV Core1-169 [4]; 0.41 OD in the test with HCV Core1-169 [5]; 2.6 OD with HCV Core1-169 [6]. For the same molecule, the OD492 in the test with HCV Core1-169 [7] came out at 0.39 OD; with HCV Core1-169 [8] it was 0.44 OD; in the test with HCV Core1-169 [9], 0.34 OD; in the test with HCV Core1-169 [10] it was 0.49 OD; in the test with HCV Core1-169 [11], 0.52 OD; with HCV Core1-169 [12], 0.52 OD. Further, in [13], the Kd was determined as 110 pM. In [13], the koff was determined as 0.00023 s⁻¹. In [13], this molecule showed a kon of 2.1e+06 M⁻¹ s⁻¹.

B7: HCV 208A-741 (antibody, V domains shown)
VH: QLQQSGPVLVKPGASVMISCKTSGYTFTENAMHWVKQSHGKSLEWIGGVNPNNGDTIFNQKFKGKATLTVDKSSSTAFMELRSLTSEESTVYYCVRRELDFFDYWGQGTSVTVSS
VL: DIVLTQSPASLAVSLGQRTTISCGASQSVSTSRFSYMHWYQQKPGQPPKLLIKYASNLESGVPARFSGSGSGTDFTLNIHPVAEEDTAAYYCQHSWEFPFTFGSGTKLEIKR
Take B7: the OD492 with HCV Core1-169 [1] turned out to be 2.36 OD; with HCV Core1-169 [2] it was 0.29 OD; in the test with HCV Core1-169 [3], 0.36 OD; with HCV Core1-169 [4], 0.29 OD; with HCV Core1-169 [5] it was 0.52 OD; with HCV Core1-169 [6], 2.13 OD. Moreover, the OD492 was 0.33 OD with HCV Core1-169 [7]; 0.34 OD with HCV Core1-169 [8]; 0.32 OD with HCV Core1-169 [9]; 0.42 OD with HCV Core1-169 [10]; 0.4 OD with HCV Core1-169 [11]; 0.42 OD with HCV Core1-169 [12]. The Kd in test [13] is 410 pM. Besides, the koff in test [13] turned out to be 0.00069 s⁻¹. In test [13], this molecule yielded a kon of 1.7e+06 M⁻¹ s⁻¹.

B8: HCV 208B-672 (antibody, V domains shown)
VH: EVKLVESGGSLVQPGGSLKLSCAASGFNFNTYAMSWVRQTPEKRLEWVAYISNGGGNTYYVDTVKGRFTISRDNAKNTLYLRMSSLKSEDTAMYYCARHGLYWGYSMDYWGQGTSVTVSS
VL: DIQMTQSPSSLSASLGERVSLTCRASQDIGGSINWLQQEPDGTIKRLIYATSSLDSGVPKRFSGSRSGSDYSLTISSLESEDFVDYYCLQYASSPPTFGGGTKLEIKR
In test [13], B8 gave a Kd of 160 pM, a koff of 0.00034 s⁻¹ and a kon of 2.2e+06 M⁻¹ s⁻¹.

B9: HCV 208B-1096 (antibody, V domains shown)
VH: QVQLQQSGAGLAKPGASVKMSCKASGYTFTANKMHWAKQRPGQGLEWIGYIDPSSGYTEYNHKIQYKATLTADTSSSTAYMQLSTLTFEDSAVYYCTNFAYWGQGTLVTVSA
VL: DIVMTQTPLTLSVTIGQPASISCKSSQSLLFTNGKTYLNWFLQRPGQSPKRLIYLLSKLDSGVPDRFSGSGSGTDFTLKISRVEAEDLGVYYCLQSTYFPLTFGAGTKLELKR
In the case of B9, the OD492 with HCV Core1-169 [1] was found to be 1.06 OD; with HCV Core1-169 [2], 0.17 OD; with HCV Core1-169 [3] it was 0.23 OD; in the test with HCV Core1-169 [4], 0.24 OD; with HCV Core1-169 [5], 0.26 OD; in the test with HCV Core1-169 [6], 0.33 OD. Also, the OD492 came out at 0.18 OD in the test with HCV Core1-169 [7]; 0.2 OD in the test with HCV Core1-169 [8]; 0.15 OD with HCV Core1-169 [9]; 0.24 OD in the test with HCV Core1-169 [10]; 0.17 OD with HCV Core1-169 [11]; 0.19 OD in the test with HCV Core1-169 [12]. The Kd in test [13] was 460 pM. Also, in [13], the koff stood at 0.0006 s⁻¹. In test [13], the kon stood at 1.3e+06 M⁻¹ s⁻¹.
